Experimental data as given in article PMC8586251, “Cryo-EM structure provides insights into the dimer arrangement of the O-linked β-N-acetylglucosamine transferase OGT” (Nature Communications, 2021).

How the values were obtained:
[1] = target: O-GlcNAc transferase OGT, full length, isoform 3, double mutant (W208A, I211A) (UniProt O15294)
[2] = target: the molecule itself; test: SEC-MALS; SEC-MALLS; Superdex S200 10/300 GL in 20 mM HEPES 7.5, 200 mM NaCl, room temperature; 100 µl of 3 mg/ml OGT injected, 0.5 ml/min; dimer against monomer

Row | Molecule | relative second order rate constant of glycosyl transfer to TAB1 protein (fluorescent OGT activity assay), against wildtype OGT (% lower than wildtype) [1] | stoichiometry N [2]
1 | O-GlcNAc transferase OGT, full length, isoform 3, double mutant (W208A, I211A) (from UniProt O15294-1 1-1046) (enzyme) | 50 | 
2 | O-GlcNAc transferase OGT, full length, isoform 3, wildtype (construct for SEC-MALLS) (enzyme, UniProt O15294-1 1-1046, looked up, also called OGT wildtype; source: E. coli BL21-Gold(DE3), purified (HisTrap, Q Sepharose, Superdex 200)) MASSVGNVADSTEPTKRMLSFQGLAELAHREYQAGDFEAAERHCMQLWRQEPDNTGVLLLLSSIHFQCRRLDRSAHFSTLAIKQNPLLAEAYSNLGNVYKERGQLQEAIEHYRHALRLKPDFIDGYINLAAALVAAGDMEGAVQAYVSALQYNPDLYCVRSDLGNLLKALGRLEEAKACYLKAIETQPNFAVAWSNLGCVFNAQGEIWLAIHHFEKAVTLDPNFLDAYINLGNVLKEARIFDRAVAAYLRALSLSPNHAVVHGNLACVYYEQGLIDLAIDTYRRAIELQPHFPDAYCNLANALKEKGSVAEAEDCYNTALRLCPTHADSLNNLANIKREQGNIEEAVRLYRKALEVFPEFAAAHSNLASVLQQQGKLQEALMHYKEAIRISPTFADAYSNMGNTLKEMQDVQGALQCYTRAIQINPAFADAHSNLASIHKDSGNIPEAIASYRTALKLKPDFPDAYCNLAHCLQIVCDWTDYDERMKKLVSIVADQLEKNRLPSVHPHHSMLYPLSHGFRKAIAERHGNLCLDKINVLHKPPYEHPKDLKLSDGRLRVGYVSSDFGNHPTSHLMQSIPGMHNPDKFEVFCYALSPDDGTNFRVKVMAEANHFIDLSQIPCNGKAADRIHQDGIHILVNMNGYTKGARNELFALRPAPIQAMWLGYPGTSGALFMDYIITDQETSPAEVAEQYSEKLAYMPHTFFIGDHANMFPHLKKKAVIDFKSNGHIYDNRIVLNGIDLKAFLDSLPDVKIVKMKCPDGGDNADSSNTALNMPVIPMNTIAEAVIEMINRGQIQITINGFSISNGLATTQINNKAATGEEVPRTIIVTTRSQYGLPEDAIVYCNFNQLYKIDPSTLQMWANILKRVPNSVLWLLRFPAVGEPNIQQYAQNMGLPQNRIIFSPVAPKEEHVRRGQLADVCLDTPLCNGHTTGMDVLWAGTPMVTMPGETLASRVAASQLTCLGCLELIAKNRQEYEDIAVKLGTDLEYLKKVRGKVWKQRISSPLFNTKQYTMELERLYLQMWEHYAAGNKPDHMIKPVEVTESA |  | 2
3 | O-GlcNAc transferase OGT, full length, isoform 3, E206A (enzyme, UniProt O15294-1 1-1046, looked up, O-GlcNAc transferase OGT, isoform 3, UniProt O15294-1, full length, site-directed mutant; source: E. coli BL21-Gold(DE3), purified (HisTrap, Q Sepharose, Superdex 200)) MASSVGNVADSTEPTKRMLSFQGLAELAHREYQAGDFEAAERHCMQLWRQEPDNTGVLLLLSSIHFQCRRLDRSAHFSTLAIKQNPLLAEAYSNLGNVYKERGQLQEAIEHYRHALRLKPDFIDGYINLAAALVAAGDMEGAVQAYVSALQYNPDLYCVRSDLGNLLKALGRLEEAKACYLKAIETQPNFAVAWSNLGCVFNAQGAIWLAIHHFEKAVTLDPNFLDAYINLGNVLKEARIFDRAVAAYLRALSLSPNHAVVHGNLACVYYEQGLIDLAIDTYRRAIELQPHFPDAYCNLANALKEKGSVAEAEDCYNTALRLCPTHADSLNNLANIKREQGNIEEAVRLYRKALEVFPEFAAAHSNLASVLQQQGKLQEALMHYKEAIRISPTFADAYSNMGNTLKEMQDVQGALQCYTRAIQINPAFADAHSNLASIHKDSGNIPEAIASYRTALKLKPDFPDAYCNLAHCLQIVCDWTDYDERMKKLVSIVADQLEKNRLPSVHPHHSMLYPLSHGFRKAIAERHGNLCLDKINVLHKPPYEHPKDLKLSDGRLRVGYVSSDFGNHPTSHLMQSIPGMHNPDKFEVFCYALSPDDGTNFRVKVMAEANHFIDLSQIPCNGKAADRIHQDGIHILVNMNGYTKGARNELFALRPAPIQAMWLGYPGTSGALFMDYIITDQETSPAEVAEQYSEKLAYMPHTFFIGDHANMFPHLKKKAVIDFKSNGHIYDNRIVLNGIDLKAFLDSLPDVKIVKMKCPDGGDNADSSNTALNMPVIPMNTIAEAVIEMINRGQIQITINGFSISNGLATTQINNKAATGEEVPRTIIVTTRSQYGLPEDAIVYCNFNQLYKIDPSTLQMWANILKRVPNSVLWLLRFPAVGEPNIQQYAQNMGLPQNRIIFSPVAPKEEHVRRGQLADVCLDTPLCNGHTTGMDVLWAGTPMVTMPGETLASRVAASQLTCLGCLELIAKNRQEYEDIAVKLGTDLEYLKKVRGKVWKQRISSPLFNTKQYTMELERLYLQMWEHYAAGNKPDHMIKPVEVTESA |  | 2
4 | O-GlcNAc transferase OGT, full length, isoform 3, E215A (enzyme, UniProt O15294-1 1-1046, looked up, O-GlcNAc transferase OGT, isoform 3, UniProt O15294-1, full length, site-directed mutant; source: E. coli BL21-Gold(DE3), purified (HisTrap, Q Sepharose, Superdex 200)) MASSVGNVADSTEPTKRMLSFQGLAELAHREYQAGDFEAAERHCMQLWRQEPDNTGVLLLLSSIHFQCRRLDRSAHFSTLAIKQNPLLAEAYSNLGNVYKERGQLQEAIEHYRHALRLKPDFIDGYINLAAALVAAGDMEGAVQAYVSALQYNPDLYCVRSDLGNLLKALGRLEEAKACYLKAIETQPNFAVAWSNLGCVFNAQGEIWLAIHHFAKAVTLDPNFLDAYINLGNVLKEARIFDRAVAAYLRALSLSPNHAVVHGNLACVYYEQGLIDLAIDTYRRAIELQPHFPDAYCNLANALKEKGSVAEAEDCYNTALRLCPTHADSLNNLANIKREQGNIEEAVRLYRKALEVFPEFAAAHSNLASVLQQQGKLQEALMHYKEAIRISPTFADAYSNMGNTLKEMQDVQGALQCYTRAIQINPAFADAHSNLASIHKDSGNIPEAIASYRTALKLKPDFPDAYCNLAHCLQIVCDWTDYDERMKKLVSIVADQLEKNRLPSVHPHHSMLYPLSHGFRKAIAERHGNLCLDKINVLHKPPYEHPKDLKLSDGRLRVGYVSSDFGNHPTSHLMQSIPGMHNPDKFEVFCYALSPDDGTNFRVKVMAEANHFIDLSQIPCNGKAADRIHQDGIHILVNMNGYTKGARNELFALRPAPIQAMWLGYPGTSGALFMDYIITDQETSPAEVAEQYSEKLAYMPHTFFIGDHANMFPHLKKKAVIDFKSNGHIYDNRIVLNGIDLKAFLDSLPDVKIVKMKCPDGGDNADSSNTALNMPVIPMNTIAEAVIEMINRGQIQITINGFSISNGLATTQINNKAATGEEVPRTIIVTTRSQYGLPEDAIVYCNFNQLYKIDPSTLQMWANILKRVPNSVLWLLRFPAVGEPNIQQYAQNMGLPQNRIIFSPVAPKEEHVRRGQLADVCLDTPLCNGHTTGMDVLWAGTPMVTMPGETLASRVAASQLTCLGCLELIAKNRQEYEDIAVKLGTDLEYLKKVRGKVWKQRISSPLFNTKQYTMELERLYLQMWEHYAAGNKPDHMIKPVEVTESA |  | 2
